Test results reported in the supplement of paper PMC10065799, “High-throughput profiling of sequence recognition by tyrosine kinases and SH2 domains using bacterial peptide display” (eLife, 2023).

Experiments:
AncSZ = assay: phosphorylation enrichment, bacterial display (enrichment ratio); higher = better substrate or ligand; peptides without Tyr show the background
EPHB1 = EPHB1 (UniProt P54762); assay: as above
EPHB2 = EPHB2 (UniProt P29323); assay: as above
FGFR1 = FGFR1 (UniProt P11362); assay: as above
FGFR1, sequence (P11362 whole entry, looked up): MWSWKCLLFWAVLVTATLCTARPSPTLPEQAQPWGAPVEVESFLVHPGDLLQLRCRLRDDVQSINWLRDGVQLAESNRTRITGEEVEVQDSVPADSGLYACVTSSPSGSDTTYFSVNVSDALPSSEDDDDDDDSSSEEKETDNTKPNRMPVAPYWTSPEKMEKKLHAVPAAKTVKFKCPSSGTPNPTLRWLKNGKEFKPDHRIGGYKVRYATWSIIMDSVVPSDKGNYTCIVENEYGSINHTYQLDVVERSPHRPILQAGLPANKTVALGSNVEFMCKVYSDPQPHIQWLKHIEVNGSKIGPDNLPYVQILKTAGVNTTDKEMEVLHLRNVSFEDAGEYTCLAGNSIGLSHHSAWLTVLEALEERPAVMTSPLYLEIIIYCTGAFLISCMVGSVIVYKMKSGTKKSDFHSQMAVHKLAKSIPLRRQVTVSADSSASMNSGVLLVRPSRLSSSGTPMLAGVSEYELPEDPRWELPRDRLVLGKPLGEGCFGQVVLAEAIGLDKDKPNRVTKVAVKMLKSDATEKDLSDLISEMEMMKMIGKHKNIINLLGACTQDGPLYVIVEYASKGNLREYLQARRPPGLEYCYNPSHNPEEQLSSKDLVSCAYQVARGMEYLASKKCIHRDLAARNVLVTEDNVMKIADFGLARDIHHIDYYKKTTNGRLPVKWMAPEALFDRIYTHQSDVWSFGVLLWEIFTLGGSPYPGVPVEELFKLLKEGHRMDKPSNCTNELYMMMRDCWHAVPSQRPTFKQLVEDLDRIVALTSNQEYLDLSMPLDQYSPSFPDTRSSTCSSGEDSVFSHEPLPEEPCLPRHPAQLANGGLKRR

FGFR3 = FGFR3 (UniProt P22607); assay: as above
Fer (mouse) = assay: as above
Fes = Fes (UniProt P07332); assay: as above
Fyn = Fyn (UniProt P06241); assay: as above
Fyn, sequence (P06241 whole entry, looked up): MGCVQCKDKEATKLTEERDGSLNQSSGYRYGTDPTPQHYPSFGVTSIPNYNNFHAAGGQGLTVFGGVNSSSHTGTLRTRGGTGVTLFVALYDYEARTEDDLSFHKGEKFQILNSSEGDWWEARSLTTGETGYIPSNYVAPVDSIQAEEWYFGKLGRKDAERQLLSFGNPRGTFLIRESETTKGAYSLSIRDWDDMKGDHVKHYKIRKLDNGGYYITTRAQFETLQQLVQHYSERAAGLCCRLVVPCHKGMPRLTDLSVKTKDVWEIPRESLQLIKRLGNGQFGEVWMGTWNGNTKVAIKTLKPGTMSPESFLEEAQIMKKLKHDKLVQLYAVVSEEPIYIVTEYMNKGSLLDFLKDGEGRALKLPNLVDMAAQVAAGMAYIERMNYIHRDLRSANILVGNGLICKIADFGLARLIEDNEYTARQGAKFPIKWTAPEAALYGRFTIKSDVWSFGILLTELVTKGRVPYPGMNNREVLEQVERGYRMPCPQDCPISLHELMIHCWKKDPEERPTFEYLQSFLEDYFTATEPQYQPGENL

Hck = Hck (UniProt P08631); assay: as above
Hck, sequence (P08631 whole entry, looked up): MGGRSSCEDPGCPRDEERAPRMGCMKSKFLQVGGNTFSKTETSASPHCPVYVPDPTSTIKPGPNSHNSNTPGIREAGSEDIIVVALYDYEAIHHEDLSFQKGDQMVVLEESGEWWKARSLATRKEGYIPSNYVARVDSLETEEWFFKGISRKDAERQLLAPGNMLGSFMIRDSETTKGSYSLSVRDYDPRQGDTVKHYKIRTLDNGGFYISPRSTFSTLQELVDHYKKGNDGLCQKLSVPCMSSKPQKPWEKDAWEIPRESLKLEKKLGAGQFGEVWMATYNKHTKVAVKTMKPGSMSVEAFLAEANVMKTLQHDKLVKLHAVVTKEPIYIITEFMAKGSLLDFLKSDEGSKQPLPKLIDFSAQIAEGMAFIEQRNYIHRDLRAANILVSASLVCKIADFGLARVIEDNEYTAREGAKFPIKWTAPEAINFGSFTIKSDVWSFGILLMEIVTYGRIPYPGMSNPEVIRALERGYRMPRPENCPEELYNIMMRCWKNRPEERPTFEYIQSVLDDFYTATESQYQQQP

Jak2 = Jak2 (UniProt O60674); assay: as above
MERTK = MERTK (UniProt Q12866); assay: as above
MERTK, sequence (Q12866 whole entry, looked up): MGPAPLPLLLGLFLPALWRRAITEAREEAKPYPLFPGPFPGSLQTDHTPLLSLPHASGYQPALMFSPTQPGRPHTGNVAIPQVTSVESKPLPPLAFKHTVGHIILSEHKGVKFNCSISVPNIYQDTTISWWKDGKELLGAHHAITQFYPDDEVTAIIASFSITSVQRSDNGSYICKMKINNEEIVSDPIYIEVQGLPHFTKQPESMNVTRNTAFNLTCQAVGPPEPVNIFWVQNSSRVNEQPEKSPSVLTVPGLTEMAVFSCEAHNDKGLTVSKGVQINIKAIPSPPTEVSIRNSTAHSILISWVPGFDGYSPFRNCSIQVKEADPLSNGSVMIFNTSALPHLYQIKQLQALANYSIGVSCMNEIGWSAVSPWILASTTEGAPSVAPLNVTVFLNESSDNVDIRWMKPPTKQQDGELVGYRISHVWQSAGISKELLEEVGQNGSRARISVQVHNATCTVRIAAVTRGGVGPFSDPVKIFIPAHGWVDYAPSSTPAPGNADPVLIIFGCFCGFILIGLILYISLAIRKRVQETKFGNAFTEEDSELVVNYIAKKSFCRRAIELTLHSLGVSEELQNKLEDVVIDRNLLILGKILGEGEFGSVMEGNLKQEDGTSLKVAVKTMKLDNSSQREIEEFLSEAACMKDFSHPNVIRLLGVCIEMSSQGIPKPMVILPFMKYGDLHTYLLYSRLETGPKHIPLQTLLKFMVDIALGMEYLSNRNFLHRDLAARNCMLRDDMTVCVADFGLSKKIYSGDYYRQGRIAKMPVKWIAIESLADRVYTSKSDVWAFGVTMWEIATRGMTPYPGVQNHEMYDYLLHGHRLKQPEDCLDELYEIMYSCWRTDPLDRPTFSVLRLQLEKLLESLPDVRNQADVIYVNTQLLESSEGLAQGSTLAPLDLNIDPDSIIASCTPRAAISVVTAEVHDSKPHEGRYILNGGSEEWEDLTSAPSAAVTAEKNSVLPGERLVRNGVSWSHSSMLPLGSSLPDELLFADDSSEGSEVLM

c-Abl (mouse) = assay: as above
c-Src = assay: as above
Grb2 SH2 = Grb2 SH2 (UniProt P62993); assay: SH2 binding enrichment of the phosphorylated peptide, bacterial display (enrichment ratio); higher = better substrate or ligand; peptides without Tyr show the background
SHP2-C SH2 = assay: as above
c-Src SH2 = assay: as above
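Wherever SH2 binding enrichment of the phosphorylated peptide, bacterial display is given: peptide library displayed on the E. coli surface as eCPX fusions, selected cells deep-sequenced, score is each peptide's frequency after selection divided by its frequency in the input.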
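Wherever phosphorylation enrichment, bacterial display is given: 11-residue human phosphosite peptides and single-mutation variants displayed on the E. coli surface, counted by deep sequencing, each peptide's frequency after selection divided by its frequency in the unselected input library; frequency after pTyr selection over input frequency; kinase dosed for 20-30% of maximal phosphorylation in three min.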

EPHB2, sequence (P29323 whole entry, looked up): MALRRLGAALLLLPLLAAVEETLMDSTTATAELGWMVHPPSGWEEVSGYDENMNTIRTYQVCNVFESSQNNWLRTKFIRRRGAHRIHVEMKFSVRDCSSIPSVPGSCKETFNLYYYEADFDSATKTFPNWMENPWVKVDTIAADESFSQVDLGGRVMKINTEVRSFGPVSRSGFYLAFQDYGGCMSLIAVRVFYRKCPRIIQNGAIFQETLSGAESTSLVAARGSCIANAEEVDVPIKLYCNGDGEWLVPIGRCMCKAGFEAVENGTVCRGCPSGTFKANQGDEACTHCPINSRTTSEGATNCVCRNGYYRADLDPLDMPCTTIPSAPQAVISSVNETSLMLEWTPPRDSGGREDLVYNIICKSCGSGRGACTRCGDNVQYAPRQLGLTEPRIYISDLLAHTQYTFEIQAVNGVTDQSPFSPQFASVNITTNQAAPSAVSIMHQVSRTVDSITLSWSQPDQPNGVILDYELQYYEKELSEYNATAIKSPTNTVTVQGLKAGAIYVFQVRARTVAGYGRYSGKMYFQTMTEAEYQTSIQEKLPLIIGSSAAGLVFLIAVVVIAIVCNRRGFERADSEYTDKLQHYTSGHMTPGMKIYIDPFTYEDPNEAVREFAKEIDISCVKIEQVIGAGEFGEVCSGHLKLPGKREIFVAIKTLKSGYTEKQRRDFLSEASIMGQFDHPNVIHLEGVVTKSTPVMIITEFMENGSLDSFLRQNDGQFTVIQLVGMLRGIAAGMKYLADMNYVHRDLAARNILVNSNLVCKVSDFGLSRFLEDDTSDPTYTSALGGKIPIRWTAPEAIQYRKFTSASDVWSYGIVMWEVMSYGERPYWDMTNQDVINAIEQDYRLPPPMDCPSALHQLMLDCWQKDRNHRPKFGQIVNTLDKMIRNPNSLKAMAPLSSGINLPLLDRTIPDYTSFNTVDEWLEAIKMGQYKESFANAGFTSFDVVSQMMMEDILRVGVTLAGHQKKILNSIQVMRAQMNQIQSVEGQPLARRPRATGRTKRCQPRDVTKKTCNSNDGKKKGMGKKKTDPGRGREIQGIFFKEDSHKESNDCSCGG
EPHB1, sequence (P54762 whole entry, looked up): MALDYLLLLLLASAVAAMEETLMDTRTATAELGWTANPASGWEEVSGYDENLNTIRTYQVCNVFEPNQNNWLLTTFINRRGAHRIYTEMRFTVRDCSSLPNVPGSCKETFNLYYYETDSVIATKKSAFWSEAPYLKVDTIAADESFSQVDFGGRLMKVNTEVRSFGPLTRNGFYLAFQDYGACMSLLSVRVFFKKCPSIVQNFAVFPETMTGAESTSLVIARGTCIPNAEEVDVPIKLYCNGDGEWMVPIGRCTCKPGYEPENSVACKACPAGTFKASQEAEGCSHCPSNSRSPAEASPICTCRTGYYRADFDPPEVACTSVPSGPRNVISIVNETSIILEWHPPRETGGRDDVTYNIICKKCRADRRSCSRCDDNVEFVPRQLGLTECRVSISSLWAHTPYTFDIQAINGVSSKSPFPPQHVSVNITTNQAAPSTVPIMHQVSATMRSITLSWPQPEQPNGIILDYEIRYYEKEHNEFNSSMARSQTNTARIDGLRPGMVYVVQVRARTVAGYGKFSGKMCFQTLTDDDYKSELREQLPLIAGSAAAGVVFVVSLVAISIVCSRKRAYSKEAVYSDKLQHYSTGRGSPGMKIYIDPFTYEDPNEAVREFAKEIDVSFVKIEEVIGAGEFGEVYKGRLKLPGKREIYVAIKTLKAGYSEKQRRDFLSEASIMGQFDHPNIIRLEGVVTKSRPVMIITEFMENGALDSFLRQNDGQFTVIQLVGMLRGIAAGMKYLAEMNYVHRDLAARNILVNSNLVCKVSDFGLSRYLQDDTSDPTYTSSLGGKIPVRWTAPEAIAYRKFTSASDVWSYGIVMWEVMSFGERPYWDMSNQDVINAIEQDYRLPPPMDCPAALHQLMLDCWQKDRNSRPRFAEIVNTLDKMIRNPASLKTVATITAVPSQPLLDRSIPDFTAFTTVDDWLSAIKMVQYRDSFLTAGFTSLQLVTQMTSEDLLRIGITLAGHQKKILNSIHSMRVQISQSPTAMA

Sequence	phosphorylation enrichment (AncSZ)	phosphorylation enrichment (EPHB1)	phosphorylation enrichment (EPHB2)	phosphorylation enrichment (FGFR1)	phosphorylation enrichment (FGFR3)	phosphorylation enrichment (Fer (mouse))	phosphorylation enrichment (Fes)	phosphorylation enrichment (Fyn)	phosphorylation enrichment (Hck)	phosphorylation enrichment (Jak2)	phosphorylation enrichment (MERTK)	phosphorylation enrichment (c-Abl (mouse))	phosphorylation enrichment (c-Src)	SH2 binding enrichment (Grb2 SH2)	SH2 binding enrichment (SHP2-C SH2)	SH2 binding enrichment (c-Src SH2)
QFLMKYVRSAS [ABCD1_Y337_W339R]	0.995	0.673	0.666	0.431	0.873	0.559	1.05	0.605	0.566	1.2	0.476	0.82	0.799	0.517	0.927	0.369
QGLRLYRPHLP [BTK_Y617_A622P]	0.772	0.444	0.568	0.48	0.408	0.606	0.857	0.401	0.522	0.967	0.512	0.712	0.419	0.816	1.34	0.781
QGLRLYRTHLA [BTK_Y617_P619T]	0.509	0.359	0.486	0.306	0.365	0.42	0.478	0.339	0.317	0.577	0.333	0.448	0.312	1.34	1.31	1.08
QHNPEYVQQAT [LRRC7_Y1058_S1063T]	0.612	0.425	0.455	0.505	0.553	0.461	0.799	0.422	0.491	0.985	0.238	0.517	0.284	0.838	0.617	0.429
QKINNYLTVPA [SLC9A1_Y683]	0.618	1.34	0.706	0.758	0.445	0.497	0.727	0.508	0.689	0.615	0.65	0.833	0.524	0.469	0.573	0.376
QKKEEYKMALY [F8_Y1990_R1985Q]	1.72	0.984	0.626	0.527	0.582	0.895	1.41	0.603	0.496	1.63	0.693	0.902	0.978	0.629	0.565	0.48
QKMADYSNKLY [PDPR_Y104]	0.61	0.492	0.455	0.436	0.735	0.435	0.717	0.515	0.692	0.579	0.535	0.555	0.509	0.776	0.604	0.447
QLQQAYQEAFE [YWHAZ_Y149_S145L]	2.59	1.43	1.69	1.76	3.04	1.72	2.69	1.23	1.67	1.77	1.29	1.6	1.12	0.83	1.07	2.03
QMIETYFDFRL [NSMF_Y506]	2.67	3.62	1.36	7.65	5.67	0.622	2.56	6.04	5.25	6.57	2.65	1.62	8.42	1.29	0.659	0.384
QMWLKYSQSDL [SMC1A_Y714_R711W]	1.67	0.637	0.562	0.701	1.08	0.512	1.8	0.485	0.546	1.27	0.505	1.11	0.668	1.02	0.878	0.455
QNAGDYFDLFG [PTPN11_Y62_T59A_YF]	6.62	21.9	16.2	25.5	24.5	0.681	1.57	0.516	1.02	13.4	1.71	1.44	1.2	0.997	0.733	0.505
QNTGNYYDLYG [PTPN11_Y62_D61N]	2.38	30.6	28.7	22.8	20.6	3.81	1.65	9.62	8.01	2.99	13.2	1.28	5.18	0.851	0.898	3.3
QNVADYMRCLM [RPL5_Y207_Y210C]	1.68	1.03	0.801	0.753	0.969	0.797	1.62	0.729	0.652	1.37	0.42	0.911	0.444	0.912	0.725	0.624
QQLDKYQELLD [LMNA_Y359_E358K]	1.26	0.889	0.806	0.715	0.783	0.452	0.995	0.485	0.441	1.33	0.446	0.789	0.453	0.958	0.59	1.31
QRAADYYSQQM [GBP6_Y333]	1.29	0.933	1.14	2.32	1.75	0.579	1.53	1.42	0.611	0.728	0.813	0.591	0.524	0.887	0.608	0.56
QRKPSYNQLPS [BRCA2_Y71_A75P]	0.886	0.449	0.522	0.557	0.598	0.536	0.767	0.599	0.691	0.72	0.567	1.08	0.682	0.858	0.648	0.423
QRNEEYCLLDS [ITK_Y198_R193Q]	1.7	1.11	0.995	1.74	1.37	0.862	2.35	0.735	0.707	1.85	0.861	1.67	0.963	0.924	0.775	0.599
